Our source for the Kd values is US20180030136A1.

For orientation: Kd means a measure of binding affinity in units of concentration.

The target of assay [1] is human ICOS (human) (UniProt Q9Y6W8). Briefly: Biacore, human ICOS. Background: In SPR one partner is held on a chip, and binding of the other changes the refractive index at the surface.
Assay [2] has as its target cynomolgus ICOS (cynomolgus). Briefly: Biacore, cyno ICOS.

Chain of human ICOS (human) (Q9Y6W8 21-140 limits assumed): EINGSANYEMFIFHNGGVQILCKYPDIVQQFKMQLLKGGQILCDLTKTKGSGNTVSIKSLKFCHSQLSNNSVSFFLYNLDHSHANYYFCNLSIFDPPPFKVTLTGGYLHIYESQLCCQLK

B1: ICOS mAb clone 314.8 (antibody, from another filing, V domains shown)
VH: QVQLQQPGTELMKPGASVKLSCKASGYTFTTYWMHWVKQRPGQGLEWIGEIDPSDSYVNYNQNFKGKATLTVDKSSSTAYIQLSSLTSEDSAVYFCARSPDYYGTSLAWFDYWGQGTLVTVST
VL: DIVMTQAAPSVPVTPGESVSISCRSSKSPLHSNGNIYLYWFLQRPGQSPQLLIYRMSNLASGVPDRFSGSGSGTTFTLKISRVEAEDVGVYYCMQHLEYPYTFGGGTKLEIK
Turning to B1, the values for the Kd in assay [1] and in assay [2] were 17 nM and 9.3 nM, respectively.
